Measurements reported in paper PMC3626232 (The Journal of biological chemistry, 2000).
Values belong to the binder of their own block, whether it stands above or below them.

Tests used:
SEC = biological target: the molecule itself; experiment: SEC
XMcm(2+4+6+7) tetramer = XMcm(2+4+6+7) tetramer (Xenopus (endogenous in Xenopus egg …, UniProt P55861 1-886; P30664 1-863; Q5FWY4 1-821; Q91876 1-720); experiment: SEC
XMcm(2+4+6+7) tetramer (Xenopus, sequence (P30664 whole entry, chain 2 of 2): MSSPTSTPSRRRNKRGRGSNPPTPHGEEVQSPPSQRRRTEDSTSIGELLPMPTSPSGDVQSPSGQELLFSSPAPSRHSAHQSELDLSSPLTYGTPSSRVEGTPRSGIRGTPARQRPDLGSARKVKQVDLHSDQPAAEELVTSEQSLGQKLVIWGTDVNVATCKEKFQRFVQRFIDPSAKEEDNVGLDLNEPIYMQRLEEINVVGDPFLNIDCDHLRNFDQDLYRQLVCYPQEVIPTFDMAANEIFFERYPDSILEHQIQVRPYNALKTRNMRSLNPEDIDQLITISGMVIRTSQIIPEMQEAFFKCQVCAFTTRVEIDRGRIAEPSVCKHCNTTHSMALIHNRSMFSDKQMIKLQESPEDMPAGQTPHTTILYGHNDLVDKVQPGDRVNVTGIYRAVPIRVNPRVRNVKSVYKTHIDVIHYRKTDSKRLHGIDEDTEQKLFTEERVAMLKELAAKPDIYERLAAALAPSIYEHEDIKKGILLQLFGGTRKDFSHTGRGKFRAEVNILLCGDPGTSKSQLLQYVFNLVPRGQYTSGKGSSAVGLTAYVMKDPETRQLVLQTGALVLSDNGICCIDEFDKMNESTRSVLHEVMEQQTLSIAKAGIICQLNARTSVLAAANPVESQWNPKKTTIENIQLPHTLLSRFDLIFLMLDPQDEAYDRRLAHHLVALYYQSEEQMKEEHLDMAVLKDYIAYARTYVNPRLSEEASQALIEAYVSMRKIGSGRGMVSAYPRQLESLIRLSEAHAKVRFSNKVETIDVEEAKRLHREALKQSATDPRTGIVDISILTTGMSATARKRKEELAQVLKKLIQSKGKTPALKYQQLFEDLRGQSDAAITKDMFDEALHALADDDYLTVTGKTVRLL
XMcm(2+4+6+7) tetramer (Xenopus, sequence (Q5FWY4 whole entry, chain 3 of 2): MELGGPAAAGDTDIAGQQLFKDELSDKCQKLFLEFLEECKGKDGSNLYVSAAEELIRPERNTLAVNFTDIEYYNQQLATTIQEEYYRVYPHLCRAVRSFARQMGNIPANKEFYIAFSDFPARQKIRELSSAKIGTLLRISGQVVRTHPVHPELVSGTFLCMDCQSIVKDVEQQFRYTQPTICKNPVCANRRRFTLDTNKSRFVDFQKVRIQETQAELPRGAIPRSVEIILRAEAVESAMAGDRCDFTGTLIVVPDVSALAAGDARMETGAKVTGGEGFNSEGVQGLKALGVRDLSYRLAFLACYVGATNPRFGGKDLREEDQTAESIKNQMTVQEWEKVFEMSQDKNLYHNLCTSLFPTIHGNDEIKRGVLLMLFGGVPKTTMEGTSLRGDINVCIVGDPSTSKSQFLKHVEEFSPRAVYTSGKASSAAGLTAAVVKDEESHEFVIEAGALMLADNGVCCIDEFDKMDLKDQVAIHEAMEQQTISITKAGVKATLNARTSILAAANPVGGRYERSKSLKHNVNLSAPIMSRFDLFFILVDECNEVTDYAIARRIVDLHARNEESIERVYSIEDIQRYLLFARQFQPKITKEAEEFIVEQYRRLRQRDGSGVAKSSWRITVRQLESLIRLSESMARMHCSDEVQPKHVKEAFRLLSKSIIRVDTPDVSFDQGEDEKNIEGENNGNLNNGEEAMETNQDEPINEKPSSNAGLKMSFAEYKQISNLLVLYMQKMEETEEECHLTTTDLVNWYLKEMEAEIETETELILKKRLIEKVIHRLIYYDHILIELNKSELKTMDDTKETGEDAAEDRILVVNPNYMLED

B1: XMcm2 (natural protein, UniProt P55861 1-886, looked up)
chain: MADSSESFNIATSPRAGSRRDALTSSPGRDLPPFEDESEGMFGDGVVPEEEEDGEELIGDAMERDYRPISELDRYEVEGLDDEEDVEDLTASQREAAEQSMRMRDREMGRELGRMRRGLLYDSDEEEEDRPARKRRMAERAAEGAPEEDEEMIESIENLEDMKGHTVREWVSMAATRLEIYHRFKNFLRTHVDEHGHNVFKEKISDMCKENKESLPVNYEDLAAREHVLAYFLPEAPAEMLKIFDEAAKEVVLVMYPKYDRIAREIHVRISHLPLVEELRSLRQLHLNQLIRTSGVVTCCTGVLPQLSMVKYNCNKCNFILGPFFQSQNQEVRPGSCPECQSFGPFEINMEETVYQNYQRITIQESPGKVAAGRLPRSKDAILLADLVDSCKPGDEIELTGIYHNNYDGSLNTANGFPVFATVILANHITKKDDKVAVGELTDEDVKAIVALSKDERIGERIFASIAPSIYGHEDIKRGLALALFGGEAKNPGGKHKVRGDINVLLCGDPGTAKSQFLKYVEKVASRAVFTTGQGASAVGLTAYVQRHPVTKEWTLEAGALVLADRGVCLIDEFDKMNDQDRTSIHEAMEQQSISISKAGIVTSLQARCTVIAASNPIGGRYDPSLTFSENVDLTEPIVSRFDILCVVRDTVDPVQDEMLARFVVSSHIKHHPSSKDIANGDAAEFALPNTFGVEALPQEVLKKYIMYAKEKIRPKLNQMDQDKVAKMYSDLRKESMATGSIPITVRHIESMIRMAEAHARMHLRDYVVEDDVNMAIRVMLESFIDTQKFSVMRSMRKTFARYLAFRRDNNELLLFVLKQLIAEQVTYQRNRYGAQQDTIEVPEKDLVDKARQINIHNLSAFYDSDLFKMNKFTHDVKKKLIIQQF
stoichiometry N (SEC): 2

binding result (XMcm(2+4+6+7) tetramer): binds
B2: XMcm(3+7) hetero-dimer (complex)
chain 1: MDYGGGFEDHELREAQREYLDFLDDDQDQGLYHGKVRDMIGSNEHRLIVNLNDVRRKNDKRANLMLNDAFAETIAFQRALKDLVASIDATYAKQFEEFSVGFEGSFGSKHVSPRTLTASLLGSLVCVEGIVTKCSLVRPKVMRSVHYCPATKKTLERKYSDLTSLEAFPSSSIYPTKDEENNPLETEYGLSTYKDHQTLSIQEMPEKAPAGQLPRSVDIIADDDLVDKCKPGDRVQIVGIYRCLPSKQGGFTSGTFRTILLANNIKLMSKEIAPTFSADDVAKIKKFCKAHSKDIFEHLSKSLAPSIHGHEYIKKAILCMLLGGNEKVLENGTRIRGDINVLLIGDPSVAKSQLLRYVLHTAPRAIPTTGRGSSGVGLTAAVTTDQETGERRLEAGAMVLADRGVVCIDEFDKMSDMDRTAIHEVMEQGRVTIAKAGIQARLNARCSVLAAANPVYGRYDQYRTPMENIGLQDSLLSRFDLLFIVLDKMDADNDQEIADHVLRMHRYRTPGEQDGYALPLGCSVEIFATDDPNASDVTDQELQIYEKHDNLLHGPRKNKSKIVSMQFIRKYIHVAKLIKPVLTSEAADYISQEYAKIRNHDQINNDSARTMPVTARALETMIRLSTAHAKVRMSKTIERQDAETALELVQFAYFKKVLAKEKKKTDKDLHDENLSQDTLSQESVRKSSRRAGKIADSQDDSMDPYSFSEQDSSLNENLSQSLRPQRKKAESQDGKRSLSQNRTKEFKAALLKAFKSSRSQSVAVSQLLELINKGNPEPFERSEVKEALDNMQNDNQVMVSEDVVFLI
chain 2: MPRDYQTEKEKCKTFLQEFYKDDEIGKKHFKYGVQLANIAHREQVALYIDLDDLAEEDPELVDAICENTRRYTNLFADAVQELLPQYKEREVVHKDALDVYIEHRLMMEQRGRDPNEMRDSQNQYPPELMRRFELYFKAPSSSKARVVRDVKADSIGKLVNIRGIVTRVTEVKPMMVVATYTCDQCGAETYQPIQSPTFMPLIMCPSRECQTNRSGGRLYLQTRGSKFIKFQELKIQEHSDQVPVGNIPRCMSVYVRGENTRLAQPGDHVGITGVFLPMLRTGFRQVVQGLLSETYLECHRLVKMNKSEDDELGTEELSEEELRQITEEDFYEKLAASIAPEIYGHEDVKKALLLLLVGGVDNSPRGMKIRGNINICLMGDPGVAKSQLLSYIDRLAPRSQYTTGRGSSGVGLTAAVMKDPVTGEMTLEGGALVLADQGVCCIDEFDKMMDTDRTAIHEVMEQQTISIAKAGIMTTLNARCSILAAANPAYGRYNPKKTVEQNIQLPAALLSRFDVLWLIQDKPDRDNDLRLAQHITYVHQHSKQPPSQFQPLDMKLMRRYITMCKRKQPAIPEALADYLTAAYVEMRKEARTNKDMTFTSARTLLSVLRLSTALARLRLEDVVEKEDVNEAMRLMEMSKDSLLGDKGHTSRTQRPADVIFSTIREMVPEKGARSVKYSEAEQRCVSKGFTPAQFEAALEEYEELNVWLVNQARTKITFV
